The subject of data set [1] is HeLa Kyoto. The data set is described as follows: solubility change mitosis vs G1/S (difference of NP-40 vs SDS log2 ratios) (log2 ratio difference); higher = more soluble in mitosis.
In data set [2] the test system is HeLa Kyoto. The data set is described as follows: thermal stability score vs G1/S (z-score of summed log2 fold changes over temperatures); higher = more thermally stable than in G1/S.
For data set [3], the system named is HeLa Kyoto. The data set can be described thus: solubility in G1/S (NP-40 vs SDS abundance) (log2 ratio); higher = more soluble. The note with it: cell cycle stage: G1/S.
In data set [4] the test system is HeLa Kyoto. The data set is described as follows: melting temperature (median over replicates), in situ; higher = more thermally stable.
[5] abbreviates: cell cycle stage: early G1 (4.5 h after nocodazole release).
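For melting temperature (median over replicates), in situ in this document: HeLa Kyoto cells synchronized by double thymidine or nocodazole block, proteins quantified by TMT10plex mass spectrometry, three independent biological replicates.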
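For solubility change mitosis vs G1/S (difference of NP-40 vs SDS log2 ratios) in this document: synchronized HeLa Kyoto cells (double thymidine block for G1/S, nocodazole release for mitosis), protein amounts in NP-40 versus SDS lysates quantified by mass spectrometry, three biological replicates.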
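For solubility in G1/S (NP-40 vs SDS abundance) in this document: HeLa Kyoto cells arrested at G1/S by double thymidine block, proteins quantified by TMT10plex mass spectrometry in mild NP-40 versus SDS extracts, three biological replicates.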
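For thermal stability score vs G1/S (z-score of summed log2 fold changes over temperatures) in this document: synchronized HeLa Kyoto cells, proteins quantified by TMT10plex mass spectrometry, three biological replicates, mitosis taken 0.5 h after nocodazole release, G1/S directly after double thymidine block.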

For the sequence “MGSAGLSRLHGLFAVYKPPGLKWKHLRDTVELQLLKGLNARKPPAPKQRVRFLLGPMEGSEEKELTLTATSVPSFINHPLVCGPAFAHLKVGVGHRLDAQASGVLVLGVGHGCRLLTDMYNAHLTKDYTVRGLLGKATDDFREDGRLVEKTTYDHVTREKLDRILAVIQGSHQKALVMYSNLDLKTQEAYEMAVRGLIRPMNKSPMLITGIRCLYFAPPEFLLEVQCMHETQKELRKLVHEIGLELKTTAVCTQVRRTRDGFFTLDSALLRTQWDLTNIQDAIRAATPQVAAELEKSLSPGLDTKQLPSPGWSWDSQGPSSTLGLERGAGQ [TRUB2]”, the “solubility change mitosis (log2)” value in data set [1] stood at 0.16. The thermal stability score in data set [2] (setting [5]) is -0.241; in data set [2] (cell cycle stage: mitosis), 0.385. The “solubility in G1/S (log2)” value in data set [3] is -0.103. For the same sequence, the melting temperature in data set [4] (cell cycle stage: G1/S) was 50.2 °C; in data set [4] (cell cycle stage: mitosis), 50 °C.

Turning to “MGSLFRSETMCLAQLFLQSGTAYECLSALGEKGLVQFRDLNQNVSSFQRKFVGEVKRCEELERILVYLVQEINRADIPLPEGEASPPAPPLKQVLEMQEQLQKLEVELREVTKNKEKLRKNLLELIEYTHMLRVTKTFVKRNVEFEPTYEEFPSLESDSLLDYSCMQRLGAKLGFVSGLINQGKVEAFEKMLWRVCKGYTIVSYAELDESLEDPETGEVIKWYVFLISFWGEQIGHKVKKICDCYHCHVYPYPNTAEERREIQEGLNTRIQDLYTVLHKTEDYLRQVLCKAAESVYSRVIQVKKMKAIYHMLNMCSFDVTNKCLIAEVWCPEADLQDLRRALEEGSRESGATIPSFMNIIPTKETPPTRIRTNKFTEGFQNIVDAYGVGSYREVNPALFTIITFPFLFAVMFGDFGHGFVMFLFALLLVLNENHPRLNQSQEIMRMFFNGRYILLLMGLFSVYTGLIYNDCFSKSVNLFGSGWNVSAMYSSSHPPAEHKKMVLWNDSVVRHNSILQLDPSIPGVFRGPYPLGIDPIWNLATNRLTFLNSFKMKMSVILGIIHMTFGVILGIFNHLHFRKKFNIYLVSIPELLFMLCIFGYLIFMIFYKWLVFSAETSRVAPSILIEFINMFLFPASKTSGLYTGQEYVQRVLLVVTALSVPVLFLGKPLFLLWLHNGRSCFGVNRSGYTLIRKDSEEEVSLLGSQDIEEGNHQVEDGCREMACEEFNFGEILMTQVIHSIEYCLGCISNTASYLRLWALSLAHAQLSDVLWAMLMRVGLRVDTTYGVLLLLPVIALFAVLTIFILLIMEGLSAFLHAIRLHWVEFQNKFYVGAGTKFVPFSFSLLSSKFNNDDSVA [ATP6V0A2]”, in data set [1], the “solubility change mitosis (log2)” value was -0.0408. Moreover, the thermal stability score in data set [2] (setting [5]) was -2.85; in data set [2] (cell cycle stage: mitosis), -3.91. Further, the “solubility in G1/S (log2)” value in data set [3] is -0.303. For the same sequence, the melting temperature in data set [4] (cell cycle stage: G1/S) was 55.8 °C; in data set [4] (cell cycle stage: mitosis) it was 56.5 °C.

With “MGSPEDDLIGIPFPDHSSELLSCLNEQRQLGHLCDLTIRTQGLEYRTHRAVLAACSHYFKKLFTEGGGGAVMGAGGSGTATGGAGAGVCELDFVGPEALGALLEFAYTATLTTSSANMPAVLQAARLLEIPCVIAACMEILQGSGLEAPSPDEDDCERARQYLEAFATATASGVPNGEDSPPQVPLPPPPPPPPRPVARRSRKPRKAFLQTKGARANHLVPEVPTVPAHPLTYEEEEVAGRVGSSGGSGPGDSYSPPTGTASPPEGPQSYEPYEGEEEEEELVYPPAYGLAQGGGPPLSPEELGSDEDAIDPDLMAYLSSLHQDNLAPGLDSQDKLVRKRRSQMPQECPVCHKIIHGAGKLPRHMRTHTGEKPFACEVCGVRFTRNDKLKIHMRKHTGERPYSCPHCPARFLHSYDLKNHMHLHTGDRPYECHLCHKAFAKEDHLQRHLKGQNCLEVRTRRRRKDDAPPHYPPPSTAAASPAGLDLSNGHLDTFRLSLARFWEQSAPTGPPVSTPGPPDDDEEEGAPTTPQAEGAMESS [ZBTB7B]”, the “solubility change mitosis (log2)” value in data set [1] came out at 0.171. Besides, the values for the thermal stability score in data set [2] (setting [5]) and in data set [2] (cell cycle stage: mitosis) were 1.42 and 0.814, respectively. Further, the “solubility in G1/S (log2)” value in data set [3] was -0.127. The results for the melting temperature in data set [4] (cell cycle stage: G1/S) and in data set [4] (cell cycle stage: mitosis) were 54.7 °C and 55 °C, respectively.

“MGSPLRFDGRVVLVTGAGAGLGRAYALAFAERGALVVVNDLGGDFKGVGKGSLAADKVVEEIRRRGGKAVANYDSVEEGEKVVKTALDAFGRIDVVVNNAGILRDRSFARISDEDWDIIHRVHLRGSFQVTRAAWEHMKKQKYGRIIMTSSASGIYGNFGQANYSAAKLGLLGLANSLAIEGRKSNIHCNTIAPNAGSRMTQTVMPEDLVEALKPEYVAPLVLWLCHESCEENGGLFEVGAGWIGKLRWERTLGAIVRQKNHPMTPEAVKANWKKICDFENASKPQSIQESTGSIIEVLSKIDSEGGVSANHTSRATSTATSGFAGAIGQKLPPFSYAYTELEAIMYALGVGASIKDPKDLKFIYEGSSDFSCLPTFGVIIGQKSMMGGGLAEIPGLSINFAKVLHGEQYLELYKPLPRAGKLKCEAVVADVLDKGSGVVIIMDVYSYSEKELICHNQFSLFLVGSGGFGGKRTSDKVKVAVAIPNRPPDAVLTDTTSLNQAALYRLSGDWNPLHIDPNFASLAGFDKPILHGLCTFGFSARRVLQQFADNDVSRFKAIKARFAKPVYPGQTLQTEMWKEGNRIHFQTKVQETGDIVISNAYVDLAPTSGTSAKTPSEGGKLQSTFVFEEIGRRLKDIGPEVVKKVNAVFEWHITKGGNIGAKWTIDLKSGSGKVYQGPAKGAADTTIILSDEDFMEVVLGKLDPQKAFFSGRLKARGNIMLSQKLQMILKDYAKL [HSD17B4]”: in data set [1], the “solubility change mitosis (log2)” value is -0.0933. Moreover, the thermal stability score in data set [2] (setting [5]) is 0.589; in data set [2] (cell cycle stage: mitosis), 0.868. Moreover, in data set [3], the “solubility in G1/S (log2)” value came to 0.00461. Also, the figures for the melting temperature in data set [4] (cell cycle stage: G1/S) and in data set [4] (cell cycle stage: mitosis) were 54.2 °C and 54.1 °C, respectively.

With “MGVQPPNFSWVLPGRLAGLALPRLPAHYQFLLDLGVRHLVSLTERGPPHSDSCPGLTLHRLRIPDFCPPAPDQIDRFVQIVDEANARGEAVGVHCALGFGRTGTMLACYLVKERGLAAGDAIAEIRRLRPGSIETYEQEKAVFQFYQRTK [DUSP23]”, in data set [1], the “solubility change mitosis (log2)” value is -0.112. Besides, the results for the thermal stability score in data set [2] (setting [5]) and in data set [2] (cell cycle stage: mitosis) were 0.571 and -0.468, respectively. Also, the “solubility in G1/S (log2)” value in data set [3] is 0.00547. The melting temperature was determined as 52.5 °C in data set [4] (cell cycle stage: G1/S) and 52.9 °C in data set [4] (cell cycle stage: mitosis).
